Assay results reported in US20210340238A1, “TGFß1 INHIBITORS AND USE THEREOF” (Scholar Rock, Inc., priority 2018, published 2021).

Tests used:
[1] = rat, in vivo
Description: Animals receiving pan-TGFβ antibody were dosed once intravenously (at day 1) at a volume of 10 mL/kg and sacrificed at day 8 and necropsies performed. […] Animals receiving LY2109761 were dosed by oral gavage once daily for five or seven days. Animals were sacrificed and necropsies performed.

[2] = tested on: TGFβ downstream tonic signaling; test: TGFβ downstream tonic signaling in non-diseased rat BAL; type: in vivo
[3] = in vivo, cited from earlier work

For c1ccc(-c2nn3c(c2-c2ccnc4cc(OCCN5CCOCC5)ccc24)CCC3)nc1 [LY2109761], the Bone findings [1] was “macroscopic abnormally shaped sternum and microscopic increased thickness of the hypertrophic zone in the endplate of the sternum and physis of the femur and tibia” and the “Effect on TGFβ downstream tonic signaling” value [2] was “inhibit TGFβ downstream tonic signaling in non-diseased rat BAL”.

For “GC1008: human analog of 1D11, pan-TGFβ antibody Fresolimumab (GC1008)”, the “Exposure: DN Cmax” value ([3]; human) is given as “DN Cmax~(350 ng/mL)mg (ng/mL)mg”, the “Exposure: Half-life” value ([3]; human) is given as “Half-life: 21.7 d” and the “Previously reported adverse events in human patients (CTCAE grade)” value [3] is given as “leukocytosis (grade 3), fatigue (grade 3), hypoxia (grade 3), asystole (grade 5), leukopenia (grade 1), recurrent, transient, tender erythematous, nodular skin lesions, suppurative dermatitis, and herpes zoster”.
